The text below walks through data of paper PMC6754363.

The assay deals with Bacillus anthracis ribonucleotide reductase subunit NrdF (Bacillus anthracis) (UniProt Q81TB4). Description: crystal structure.

“Bacillus anthracis ribonucleotide reductase subunit NrdF (from UniProt Q81TB4 1-322) (enzyme)” came in with a stoichiometry N of 2.

The stoichiometry N is the number of molecules, sites or subunits per partner or assembly.
